Ends that are not written are not given here. * marks the point of attachment. Biotin = O=C1N[C@H]2[C@H](CS[C@H]2CCCCC(=O)*)N1
T1: GST-TAX-IP43 PDZ domain fusion protein (human, UniProt Q13884 109-180)
T1 construct: also called TAX43; not shown: glutathione S-transferase encoded by vector pGEX-3X (Pharmacia)
T1 sequence: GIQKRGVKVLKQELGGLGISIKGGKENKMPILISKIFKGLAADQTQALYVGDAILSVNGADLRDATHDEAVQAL

T2: GST-PTN-4 PDZ domain fusion protein (Homo sapiens (Human), UniProt P29074 517-605)
T2 construct: also called protein-tyrosine phosphatase meg1; not shown: glutathione S-transferase encoded by vector pGEX-3X (Pharmacia)
T2 sequence: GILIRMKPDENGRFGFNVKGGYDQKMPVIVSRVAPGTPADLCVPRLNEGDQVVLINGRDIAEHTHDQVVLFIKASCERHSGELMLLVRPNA

T3: GST-MPP1 PDZ domain fusion protein (Homo sapiens (Human), UniProt Q00013 67-152)
T3 construct: also called p55; 55 Kd erythrocyte membrane protein; not shown: glutathione S-transferase encoded by vector pGEX-3X (Pharmacia)
T3 sequence: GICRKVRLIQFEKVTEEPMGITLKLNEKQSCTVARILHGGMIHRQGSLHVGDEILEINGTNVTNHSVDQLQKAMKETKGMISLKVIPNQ

T4: GST-prIL16 fusion protein (PDZ domains 1-2) (Homo sapiens (Human), UniProt Q14005 1111-1324)
T4 construct: also called putative interleukin 16 precursor; not shown: glutathione S-transferase encoded by vector pGEX-3X (Pharmacia)
T4 sequence: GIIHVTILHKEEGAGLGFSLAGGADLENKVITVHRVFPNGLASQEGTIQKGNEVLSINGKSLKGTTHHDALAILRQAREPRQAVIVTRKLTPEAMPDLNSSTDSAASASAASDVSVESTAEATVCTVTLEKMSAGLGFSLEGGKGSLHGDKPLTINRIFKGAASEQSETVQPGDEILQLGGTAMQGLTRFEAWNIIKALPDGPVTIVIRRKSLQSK

T5: GST-AF6 PDZ domain fusion protein (Homo sapiens (Human), UniProt P55196 1001-1093)
T5 construct: also called af-6 protein; not shown: glutathione S-transferase encoded by vector pGEX-3X (Pharmacia)
T5 sequence: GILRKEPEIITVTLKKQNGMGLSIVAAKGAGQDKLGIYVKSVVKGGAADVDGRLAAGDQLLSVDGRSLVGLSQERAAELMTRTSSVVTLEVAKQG

T6: GST-RGS12 PDZ domain fusion protein (human, UniProt O14924 17-85)
T6 construct: also called human regulator of G-protein signalling 12; not shown: glutathione S-transferase encoded by vector pGEX-3X (Pharmacia)
T6 sequence: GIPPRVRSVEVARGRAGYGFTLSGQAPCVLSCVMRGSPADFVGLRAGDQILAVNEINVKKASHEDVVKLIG

T7: GST-PDZK1 fusion protein (PDZ domains 2-4) (Homo sapiens, UniProt Q5T2W1 134-457)
T7 construct: not shown: glutathione S-transferase encoded by vector pGEX-3X (Pharmacia)
T7 sequence: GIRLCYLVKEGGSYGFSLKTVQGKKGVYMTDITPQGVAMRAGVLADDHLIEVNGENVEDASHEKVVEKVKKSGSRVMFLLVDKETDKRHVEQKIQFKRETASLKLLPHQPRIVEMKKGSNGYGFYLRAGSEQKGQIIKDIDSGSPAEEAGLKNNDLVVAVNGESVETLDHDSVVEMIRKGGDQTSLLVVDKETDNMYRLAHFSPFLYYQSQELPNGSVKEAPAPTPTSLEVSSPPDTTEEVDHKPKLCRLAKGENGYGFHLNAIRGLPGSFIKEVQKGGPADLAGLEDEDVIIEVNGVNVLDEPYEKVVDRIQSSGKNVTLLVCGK

T8: KIAA0807 (PDZ domain)-GST fusion protein (human, UniProt Q6P0Q8 1104-1192)
T8 construct: also called K807; KIAA807; not shown: glutathione S-transferase encoded by vector pGEX-3X (Pharmacia)
T8 sequence: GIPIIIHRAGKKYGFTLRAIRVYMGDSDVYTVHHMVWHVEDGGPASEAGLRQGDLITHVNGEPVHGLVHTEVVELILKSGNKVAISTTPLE

T9: TAX-IP2L PDZ-GST fusion protein (Homo sapiens (Human), UniProt Q8TF64 107-197)
T9 construct: Order of GST and PDZ part and limits not seen in the excerpts
T9 sequence: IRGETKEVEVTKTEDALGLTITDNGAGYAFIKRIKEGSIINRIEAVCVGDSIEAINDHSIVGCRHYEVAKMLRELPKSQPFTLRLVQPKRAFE

T10: MINT3 PDZ-GST fusion protein
T10 construct: Order of GST and PDZ part and limits not seen in the excerpts
T10 chain: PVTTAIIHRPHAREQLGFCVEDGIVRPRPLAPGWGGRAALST

T11: K858 PDZ-GST fusion protein (Homo sapiens (Human), UniProt Q8WWI1 1038-1131)
T11 construct: Order of GST and PDZ part and limits not seen in the excerpts
T11 sequence: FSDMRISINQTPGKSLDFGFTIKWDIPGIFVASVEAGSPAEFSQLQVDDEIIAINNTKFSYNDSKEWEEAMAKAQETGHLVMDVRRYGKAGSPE

T12: ConEn PDZ-GST fusion protein (Homo sapiens (Human), UniProt Q969H4 193-287)
T12 construct: The label ConEn is not explained in the excerpts
T12 sequence: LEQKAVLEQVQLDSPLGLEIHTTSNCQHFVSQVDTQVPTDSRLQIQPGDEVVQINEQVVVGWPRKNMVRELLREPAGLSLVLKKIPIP

B1: CD105 C-terminal peptide AA16L, biotinylated (peptide)
peptide: Biotin-STNHSIGSTQSTPCSTSSMA
notes: also called CD105 (endoglin)
B2: Clasp-2 C-terminal peptide AA2L, biotinylated (peptide)
peptide: Biotin-ISGTPTSTMVHGMTSSSSVV

The binders below were run against T1, GST-TAX-IP43 PDZ domain fusion protein (assay: A/G assays).

Row | binding result | Binder
1 | no binding | B1
2 | no binding | B2

These binders were tested against T2, GST-PTN-4 PDZ domain fusion protein (assay: A/G assays).

Row | binding result | Binder
3 | no binding | B1
4 | no binding | B2

What follows are binders tested against T3, GST-MPP1 PDZ domain fusion protein (assay: A/G assays).

Row | binding result | Binder
5 | no binding | B1
6 | no binding | B2

Each binder was assayed against T4, GST-prIL16 fusion protein (PDZ domains …) (assay: A/G assays).

Row | binding result | Binder
7 | no binding | B1
8 | no binding | B2

Each binder was assayed against T5, GST-AF6 PDZ domain fusion protein (assay: A/G assays).

Row | binding result | Binder
9 | no binding | B1
10 | no binding | B2

The binders below were run against T6, GST-RGS12 PDZ domain fusion protein (assay: A/G assays).

Row | binding result | Binder
11 | no binding | B1
12 | no binding | B2

What follows are binders tested against T7, GST-PDZK1 fusion protein (PDZ domains …) (assay: A/G assays).

Row | binding result | Binder
13 | no binding | B1
14 | no binding | B2

What follows are binders tested against T13, GST-TIAM1 PDZ domain fusion protein (Homo sapiens (Human), UniProt Q13009 845-931) (assay: A/G assays).
T13 construct: also called TLAM1; T-lymphoma invasion and metastasis inducing protein 1; not shown: glutathione S-transferase encoded by vector pGEX-3X (Pharmacia)
T13 sequence (Q13009 other isoform, or with tags, fused parts or gaps): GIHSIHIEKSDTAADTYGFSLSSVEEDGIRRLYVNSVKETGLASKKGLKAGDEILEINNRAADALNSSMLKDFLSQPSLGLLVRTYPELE

Row | binding result | Binder
15 | no binding | B1
16 | no binding | B2

Each binder was assayed against T8, KIAA0807 (PDZ domain)-GST fusion protein (assay: A/G assays).

Row | binding result | Binder
17 | no binding | B1
18 | no binding | B2

The binders below were run against T9, TAX-IP2L PDZ-GST fusion protein (assay: A/G assays).

Row | binding result | Binder
19 | no binding | B1
20 | no binding | B2

Molecular target: T10, MINT3 PDZ-GST fusion protein
Assay: A/G assays

Row | binding result | Binder
21 | no binding | B1
22 | no binding | B2

The binders below were run against T14, PICK1 PDZ-GST fusion protein (Bos taurus (Bovine), UniProt Q2T9M1 17-105) (assay: A/G assays).
T14 construct: Order of GST and PDZ part and limits not seen in the excerpts
T14 sequence (Q2T9M1 other isoform, or with tags, fused parts or gaps limits assumed): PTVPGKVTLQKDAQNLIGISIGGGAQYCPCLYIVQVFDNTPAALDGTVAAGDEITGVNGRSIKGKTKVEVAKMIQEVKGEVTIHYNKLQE

Row | binding result | Binder
23 | no binding | B1
24 | no binding | B2

These binders were tested against T15, K316 PDZ-GST fusion protein (Homo sapiens (Human), UniProt Q14CM0 72-159) (assay: A/G assays).
T15 construct: Order of GST and PDZ part and limits not seen in the excerpts
T15 sequence (Q14CM0 72-159 limits assumed): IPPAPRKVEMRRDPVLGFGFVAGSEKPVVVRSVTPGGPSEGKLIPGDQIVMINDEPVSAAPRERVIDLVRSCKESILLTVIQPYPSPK

Row | binding result | Binder
25 | no binding | B1
26 | no binding | B2

Each binder was assayed against T11, K858 PDZ-GST fusion protein (assay: A/G assays).

Row | binding result | Binder
27 | no binding | B1
28 | no binding | B2

These binders were tested against T12, ConEn PDZ-GST fusion protein (assay: A/G assays).

Row | binding result | Binder
29 | no binding | B1
30 | no binding | B2

What follows are binders tested against T16, NSP PDZ-GST fusion protein (Homo sapiens (Human), UniProt Q92743 370-466) (assay: A/G assays).
T16 construct: The label NSP is not explained in the excerpts
T16 sequence (Q92743 other isoform, or with tags, fused parts or gaps limits assumed): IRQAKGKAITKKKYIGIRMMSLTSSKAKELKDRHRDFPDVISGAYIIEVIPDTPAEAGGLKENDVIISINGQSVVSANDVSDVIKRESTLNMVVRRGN

Row | binding result | Binder
31 | no binding | B1
32 | no binding | B2
